Assay results as given in patent US20190077849A1 (US Dept. of Health and Human Services, published 2019).
Where “and” joins values, the source holds several entries; their conditions need not be identical. Equal values may be shown once. Read-outs that look alike come from different tables or passages of the source.

Columns and labels:
[1] = biological target: HIV-1 Env of TH966.8.SG3 pseudovirus (clade AE) (HIV-1); test: cell-based or functional assay
[2] = biological target: HIV-1 Env of ZM106.9.SG3 pseudovirus (clade C) (HIV-1); test: cell-based or functional assay
[3] = biological target: T1, HIV-1 Env of 6095.V1.C10.SG3 pseudovirus (clade ACD) (HIV-1); test: cell-based or functional assay
[4] = biological target: HIV-1 Env of KER2008.12.SG3 pseudovirus (clade A) (HIV-1); test: cell-based or functional assay
[5] = biological target: HIV-1 Env of ZM215.8.SG3 pseudovirus (clade C) (HIV-1); test: cell-based or functional assay
[6] = biological target: HIV-1 Env of PVO.04.SG3 pseudovirus (clade B) (HIV-1); test: cell-based or functional assay
[7] = biological target: HIV-1 Env of 6101.10.SG3 pseudovirus (clade B) (HIV-1); test: cell-based or functional assay
[8] = biological target: T2, HIV-1 Env of YU2.DG.SG3 pseudovirus (clade B) (HIV-1, UniProt P35961 32-843); test: cell-based or functional assay
[9] = biological target: HIV-1 Env of CNE31.SG3 pseudovirus (clade C) (HIV-1); test: cell-based or functional assay
[10] = biological target: HIV-1 Env of TH966.8.SG3 pseudovirus (clade AE) (HIV-1); test: cell-based or functional assay; remark: listed apart in the source
[11] = biological target: HIV-1 Env of ZM106.9.SG3 pseudovirus (clade C) (HIV-1); test: cell-based or functional assay; remark: listed apart in the source
[12] = biological target: HIV-1 Env of KER2008.12.SG3 pseudovirus (clade A) (HIV-1); test: cell-based or functional assay; remark: listed apart in the source
[13] = biological target: HIV-1 Env of PVO.04.SG3 pseudovirus (clade B) (HIV-1); test: cell-based or functional assay; remark: listed apart in the source
[14] = biological target: HIV-1 Env of CNE31.SG3 pseudovirus (clade C) (HIV-1); test: cell-based or functional assay; remark: listed apart in the source
[15] = biological target: HIV-1 Env of TH966.8.SG3 pseudovirus (clade AE) (HIV-1); test: cell-based or functional assay; remark: listed apart in the source
[16] = biological target: HIV-1 Env of ZM106.9.SG3 pseudovirus (clade C) (HIV-1); test: cell-based or functional assay; remark: listed apart in the source
[17] = biological target: T1, HIV-1 Env of 6095.V1.C10.SG3 …; test: cell-based or functional assay; remark: listed apart in the source
[18] = biological target: HIV-1 Env of KER2008.12.SG3 pseudovirus (clade A) (HIV-1); test: cell-based or functional assay; remark: listed apart in the source
[19] = biological target: HIV-1 Env of ZM215.8.SG3 pseudovirus (clade C) (HIV-1); test: cell-based or functional assay; remark: listed apart in the source
[20] = biological target: HIV-1 Env of PVO.04.SG3 pseudovirus (clade B) (HIV-1); test: cell-based or functional assay; remark: listed apart in the source
[21] = biological target: HIV-1 Env of 6101.10.SG3 pseudovirus (clade B) (HIV-1); test: cell-based or functional assay; remark: listed apart in the source
[22] = biological target: T2, HIV-1 Env of YU2.DG.SG3 pseudovirus …; test: cell-based or functional assay; remark: listed apart in the source
[23] = biological target: HIV-1 Env of CNE31.SG3 pseudovirus (clade C) (HIV-1); test: cell-based or functional assay; remark: listed apart in the source
[24] = biological target: T3, MPER peptide (HIV-1); test: MPER peptide binding assay (method not given)
T3 construct: also called gp41 MPER peptide

B1: 10E8 variant 4 (H6-511-4mut VH + rL3-6mut VL) (antibody, V domains shown)
VH: EVRLVESGGGLVKPGGSLRLSCSASGFDFDNAWMTWVRQPPGKGLEWVGRITGPGEGWSVDYAESVKGRFTISRDNTKNTLYLEMNNVRTEDTGYYFCARTGKYYDFWSGYPPGEEYFQDWGQGTLVIVSS
VL: ASELTQDPAVSVALKQTVTITCRGDSLRSHYASWYQKKPGQAPVLLFYGKNNRPSGIPDRFSGSASGNRASLTITGAQAEDEADYYCSSRDKSGSRLSVFGGGTKLTVL
In the case of B1, the “IC50, pseudovirus neutralization” value [1] is reported as 0.056 µg/mL, the “IC80, pseudovirus neutralization” value [1] is reported as 0.291 µg/mL and the “IC50, pseudovirus neutralization” value [2] is reported as over 50 µg/mL. The “IC80, pseudovirus neutralization” value [2] was over 50 µg/mL, the “IC50, pseudovirus neutralization” value [3] was 0.004 µg/mL and the “IC80, pseudovirus neutralization” value [3] was 0.015 µg/mL. The “IC50, pseudovirus neutralization” value [4] was over 50 µg/mL, the “IC80, pseudovirus neutralization” value [4] was over 50 µg/mL and the “IC50, pseudovirus neutralization” value [5] was 0.122 µg/mL. For the same binder, the “IC80, pseudovirus neutralization” value [5] was 0.502 µg/mL, the “IC50, pseudovirus neutralization” value [6] was 3.07 µg/mL and the “IC80, pseudovirus neutralization” value [6] was 11.9 µg/mL. For the same binder, the “IC50, pseudovirus neutralization” value [7] was 0.052 µg/mL, the “IC80, pseudovirus neutralization” value [7] was 0.263 µg/mL and the “IC50, pseudovirus neutralization” value [8] was 1.49 µg/mL. For the same binder, the “IC80, pseudovirus neutralization” value [8] was 6.33 µg/mL, the “IC50, pseudovirus neutralization” value [9] was 1.32 µg/mL and the “IC80, pseudovirus neutralization” value [9] was 4.04 µg/mL. For the same binder, the “IC50, pseudovirus neutralization” value [10] was 0.036 µg/mL and 0.021 µg/mL, the “IC50, pseudovirus neutralization” value [11] was over 50 µg/mL and the “IC50, pseudovirus neutralization” value [12] was over 50 µg/mL. The “IC50, pseudovirus neutralization” value [13] was 2.39 µg/mL and 1.13 µg/mL, the “IC50, pseudovirus neutralization” value [14] was 1.16 µg/mL and the “IC50, pseudovirus neutralization” value [15] was 0.026 µg/mL. For the same binder, the “IC80, pseudovirus neutralization” value [15] was 0.169 µg/mL, the “IC50, pseudovirus neutralization” value [16] was over 50 µg/mL and the “IC80, pseudovirus neutralization” value [16] was over 50 µg/mL. For the same binder, the “IC50, pseudovirus neutralization” value [17] was 0.004 µg/mL, the “IC80, pseudovirus neutralization” value [17] was 0.021 µg/mL and the “IC50, pseudovirus neutralization” value [18] was over 50 µg/mL. The “IC80, pseudovirus neutralization” value [18] was over 50 µg/mL, the “IC50, pseudovirus neutralization” value [19] was 0.042 µg/mL and the “IC80, pseudovirus neutralization” value [19] was 0.326 µg/mL. The “IC50, pseudovirus neutralization” value [20] was 0.894 µg/mL, the “IC80, pseudovirus neutralization” value [20] was 8 µg/mL and the “IC50, pseudovirus neutralization” value [21] was 0.011 µg/mL. For the same binder, the “IC80, pseudovirus neutralization” value [21] was 0.09 µg/mL, the “IC50, pseudovirus neutralization” value [22] was 0.668 µg/mL and the “IC80, pseudovirus neutralization” value [22] was 5.32 µg/mL. The “IC50, pseudovirus neutralization” value [23] was 1.74 µg/mL and the “IC80, pseudovirus neutralization” value [23] was 4.85 µg/mL.

B2: 10E8v4 S100cW-DS (antibody, V domains shown)
VH: EVRLVESGGGLVKPGGSLRLSCSASGFDFDNAWMTWVRQPPGKGLEWVGRITGPGEGWSVDYAESVKGRFTISRDNTKNTLYLEMNNVRTEDTGYYFCARTGKYYDFWWGCPPGEEYFQDWGQGTLVIVSS
VL: ASELTQDPAVSVALKQTVTITCRGDSLRCHYASWYQKKPGQAPVLLFYGKNNRPSGIPDRFSGSASGNRASLTITGAQAEDEADYYCSSRDKSGSRLSVFGGGTKLTVL
In the case of B2, the “IC50, pseudovirus neutralization” value [15] is reported as 0.019 µg/mL, the “IC80, pseudovirus neutralization” value [15] is reported as 0.092 µg/mL and the “IC50, pseudovirus neutralization” value [16] is reported as over 50 µg/mL. The “IC80, pseudovirus neutralization” value [16] was over 50 µg/mL, the “IC50, pseudovirus neutralization” value [17] was 0.002 µg/mL and the “IC80, pseudovirus neutralization” value [17] was 0.013 µg/mL. For the same binder, the “IC50, pseudovirus neutralization” value [18] was over 50 µg/mL, the “IC80, pseudovirus neutralization” value [18] was over 50 µg/mL and the “IC50, pseudovirus neutralization” value [19] was 0.037 µg/mL. For the same binder, the “IC80, pseudovirus neutralization” value [19] was 0.245 µg/mL, the “IC50, pseudovirus neutralization” value [20] was 0.331 µg/mL and the “IC80, pseudovirus neutralization” value [20] was 3.67 µg/mL. The “IC50, pseudovirus neutralization” value [21] was 1.22 µg/mL, the “IC80, pseudovirus neutralization” value [21] was 10.1 µg/mL and the “IC50, pseudovirus neutralization” value [22] was 0.213 µg/mL. The “IC80, pseudovirus neutralization” value [22] was 2.2 µg/mL, the “IC50, pseudovirus neutralization” value [23] was 0.806 µg/mL and the “IC80, pseudovirus neutralization” value [23] was 2.93 µg/mL.

B3: 10E8v4-DS (VH Y100eC and VL S30C substitutions) (antibody, V domains shown)
VH: EVRLVESGGGLVKPGGSLRLSCSASGFDFDNAWMTWVRQPPGKGLEWVGRITGPGEGWSVDYAESVKGRFTISRDNTKNTLYLEMNNVRTEDTGYYFCARTGKYYDFWSGCPPGEEYFQDWGQGTLVIVSS
VL: ASELTQDPAVSVALKQTVTITCRGDSLRCHYASWYQKKPGQAPVLLFYGKNNRPSGIPDRFSGSASGNRASLTITGAQAEDEADYYCSSRDKSGSRLSVFGGGTKLTVL
With B3 the “fold tighter binding than 10E8v4” value [24] was 2 fold, the “IC50, pseudovirus neutralization” value [15] was 0.092 µg/mL and the “IC80, pseudovirus neutralization” value [15] was 0.345 µg/mL. The “IC50, pseudovirus neutralization” value [16] was over 50 µg/mL, the “IC80, pseudovirus neutralization” value [16] was over 50 µg/mL and the “IC50, pseudovirus neutralization” value [17] was 0.002 µg/mL. For the same binder, the “IC80, pseudovirus neutralization” value [17] was 0.017 µg/mL, the “IC50, pseudovirus neutralization” value [18] was over 50 µg/mL and the “IC80, pseudovirus neutralization” value [18] was over 50 µg/mL. The “IC50, pseudovirus neutralization” value [19] was 0.208 µg/mL, the “IC80, pseudovirus neutralization” value [19] was 0.798 µg/mL and the “IC50, pseudovirus neutralization” value [20] was 2.53 µg/mL. The “IC80, pseudovirus neutralization” value [20] was 10.1 µg/mL, the “IC50, pseudovirus neutralization” value [21] was 2.41 µg/mL and the “IC80, pseudovirus neutralization” value [21] was 22.2 µg/mL. For the same binder, the “IC50, pseudovirus neutralization” value [22] was 0.275 µg/mL, the “IC80, pseudovirus neutralization” value [22] was 2.44 µg/mL and the “IC50, pseudovirus neutralization” value [23] was 2.28 µg/mL. The “IC80, pseudovirus neutralization” value [23] was 6.48 µg/mL.
